Data on 4 molecules can be found in paper PMC5397045, “Biochemical and molecular characterization of the isocitrate dehydrogenase with dual coenzyme specificity from the obligate methylotroph Methylobacillus Flagellatus” (PLoS ONE, 2017).

The target of one data set is T1, MfIDH (Methylobacillus flagellatus, UniProt Q1GZD1).
T1 construct: gene Mfla_2139; native enzyme purified from M. flagellatus cells, untagged; 413 residues; homodimer (recombinant N-terminal 6xHis form said to be essentially the same)
T1 sequence (Q1GZD1 1-413): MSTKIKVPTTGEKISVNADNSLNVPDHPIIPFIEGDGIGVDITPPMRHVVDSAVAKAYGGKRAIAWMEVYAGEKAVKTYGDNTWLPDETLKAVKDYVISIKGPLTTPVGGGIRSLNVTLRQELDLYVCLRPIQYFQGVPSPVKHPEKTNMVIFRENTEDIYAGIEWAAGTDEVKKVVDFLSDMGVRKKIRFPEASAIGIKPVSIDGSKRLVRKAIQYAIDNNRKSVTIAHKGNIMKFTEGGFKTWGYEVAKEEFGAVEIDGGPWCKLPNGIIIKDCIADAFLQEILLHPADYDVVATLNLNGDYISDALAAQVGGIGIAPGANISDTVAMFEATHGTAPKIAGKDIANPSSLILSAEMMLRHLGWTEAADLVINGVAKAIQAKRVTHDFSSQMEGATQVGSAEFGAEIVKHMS
As to the kind of experiment: NAD(P)H formation at […] nm. Format: biochemical. The settings on record: read-out: % inhibition at 2 mM.

In data set [1] the target is recombinant 6x-His-tagged isocitrate dehydrogenase from Methylobacillus flagellatus (Methylobacillus flagellatus ATCC51484). As to the kind of experiment: SEC; HiLoad 10/300 Superdex 200, 0.05 M potassium phosphate buffer pH 7.0, 0.15 M NaCl, 0.01% sodium azide, 0.5 mL/min; calibrated with standards of 29-669 kDa. (Size exclusion chromatography separates by hydrodynamic size, large species first.)

Data set [2] deals with native isocitrate dehydrogenase from Methylobacillus flagellatus (Methylobacillus flagellatus ATCC51484). The data set is described as follows: native gel or EMSA; gradient non-denaturing PAGE (4-20%, w/v), protein stain and zymogram staining for NAD+- and NADP+-dependent activity; band compared with protein markers. For orientation: A gel shift assay detects complexes by their altered migration in electrophoresis.

Substrate in data set [3]: O=C(O)CC(C(=O)O)C(O)C(=O)O
The data set is described as follows: purified protein. The data set is classed as biochemical, Methylobacillus flagellatus. The note with it: cosubstrate NAD+ (saturating), Mn2+, 100 mM Tris-HCl pH 8.5, 42°C, pH 8.5.

Substrate in data set [4]: NC(=O)c1ccc[n+]([C@@H]2O[C@H](COP(=O)(O)OP(=O)(O)OC[C@H]3O[C@@H](n4cnc5c(N)ncnc54)[C@H](OP(=O)(O)O)[C@@H]3O)[C@@H](O)[C@H]2O)c1
The data set is described as follows: purified protein. The settings on record: saturating DL-isocitrate, Mn2+, 100 mM Bis-Tris-HCl pH 6.0, 42°C, apparent, pH 6.0. The data set is classed as biochemical, Methylobacillus flagellatus.

Substrate in data set [5]: NC(=O)c1ccc[n+]([C@@H]2O[C@H](COP(=O)(O)OP(=O)(O)OC[C@H]3O[C@@H](n4cnc5c(N)ncnc54)[C@H](O)[C@@H]3O)[C@@H](O)[C@H]2O)c1
The data set is described as follows: purified protein. The note with it: saturating DL-isocitrate, Mn2+, 100 mM Tris-HCl pH 8.5, 42°C, apparent, pH 8.5. Format: biochemical, Methylobacillus flagellatus.

A word on the inhibition: it is the drop in the measured response relative to a control, in per cent. `Nc1ncnc2c1ncn2[C@@H]1O[C@H](COP(=O)(O)OP(=O)(O)OP(=O)(O)O)[C@@H](O)[C@H]1O` [ATP]: the inhibition at 2000 µM on MfIDH was found to be 50%.

As a reminder, the stoichiometry N is a count of units in the complex or per binding partner. On to “recombinant 6x-His-tagged isocitrate dehydrogenase from Methylobacillus flagellatus (enzyme)”, for which the stoichiometry N in data set [1] is 2.

For “native isocitrate dehydrogenase from Methylobacillus flagellatus (enzyme)”, the stoichiometry N in data set [2] was found to be 2.

B1: MfIDH (Methylobacillus flagellatus KT) (protein)
chain: T1 sequence (Q1GZD1 1-413)
notes: native enzyme purified from M. flagellatus cells, untagged; 413 residues; homodimer (recombinant N-terminal 6xHis form said to be essentially the same)
Usually Km stands for the substrate concentration at which the rate is half of its maximum. The kcat is the maximal rate divided by the concentration of active sites. As a reminder, the kcat/Km is the second-order rate constant that governs catalysis at low substrate concentration. Turning to B1, the Km in “purified protein [3]” stood at 9.0 µM. For the same molecule, in “purified protein [4]”, the Michaelis constant (Km) came out at 184 µM, the kcat was found to be 56 s⁻¹ and the kcat/Km came to 300000 M⁻¹ s⁻¹. For the same molecule, in the data set “purified protein [5]”, the Km came to 113 µM, the kcat stood at 166 s⁻¹ and the kcat/Km was 1.5e+06 M⁻¹ s⁻¹.
